Assay results from patent US7576101B2, “Composition for and treatment of demyelinating diseases and paralysis by administration of remyelinating agents” (Elan Pharmaceuticals, Inc., priority 2003, dated 2009).
Values belong to the molecule of their own block, whether it stands above or below them.

Columns and labels:
[1] = target: human α4β1 integrin (human) (UniProt P13612); assay: cell-based or functional assay
[2] = target: rat α4 integrin on rat lymphocytes (rat); assay: cell-based or functional assay
VLA-4 = VLA-4 (Homo sapiens, UniProt P13612); settings: cited from earlier work
[3] = system: human lymphocyte binding to rat brain cells; settings: cited from earlier work

- Relative Binding to EAE Vessels (% of Control), human lymphocytes [1]: 7 % of Control
- Relative Binding to EAE Vessels (% of control), U937 cells [1]: 8 % of control
Molecule: AIIB2 (antibody)

- % Input Binding Jurkat, TNFα-stimulated rat brain EC clone [1]: 6 % input
- % Input Binding Ramos, TNFα-stimulated rat brain EC clone [1]: 2 % input
- % Input Binding U937 to VCAM-1 transfected L cells [1]: 3 % input
- % inhibition of Jurkat binding to FN-coated plate [1]: 47 % inhibition
- % input bound, Jurkat cells on FN-coated plate (% input bound) [1]: 42
- % input cells bound, U937 on TNFα-stimulated primary rat brain EC (% input cells bound) [1]: 13
- Binding of U937 cells to inflamed vessels in sections of EAE brain [1]: 3
- Relative Binding to EAE Vessels (% of Control), human lymphocytes [1]: 1 % of Control
- Relative Binding to EAE Vessels (% of control), U937 cells [1]: 3 % of control
- Relative Binding to EAE Vessels (% of control), U937 cells, tested at 25° C. [1]: 5 % of control
- Relative Binding to EAE Vessels (% of Control), rat lymphocytes [2]: 18 % of Control
Molecule: HP2/1 (antibody)

Continued, molecule first:

Molecule: HP1/7 (antibody)
- Relative Binding to EAE Vessels (% of control), U937 cells [1]: 338 % of control

Molecule: P4G9 (antibody)
- Relative Binding to EAE Vessels (% of control), U937 cells [1]: 151 % of control

B1: mu MAb 21.6: mouse monoclonal antibody specific for the alpha-4 subunit of VLA-4; donor immunoglobulin for humanization (antibody, V domains shown)
VH: EVQLQQSGAELVKPGASVKLSCTASGFNIKDTYIHCVKQRPEQGLEWIGRIDPANGYTKYDPKFQGKATITADTSSNTAYLQLSSLTSEDTAVYFCAREGYYGNYGVYAMDYWGQGTSVTVSSAK
VL: DIQMTQSPSSLSASLGGKVTITCKTSQDINKYMAWYQHKPGKRPRLLIHYTSALQPGIPSRFSGSGSGRDYSFNISNLEPEDIATYYCLQYDNLWTFGGGTKLEIK
- binding affinity for VLA-4 (VLA-4): about 10^9 M^−1
- human lymphocyte binding to tissue cultures of rat brain cells stimulated with tumor necrosis factor [3]: inhibit
